Reference: publication PMC7984842, “Genetic disruption of WASHC4 drives endo-lysosomal dysfunction and cognitive-movement impairments in mice and humans” (eLife, 2021)
Blank lines part the entries; values can stand above or below the binder they belong to.

Biological target: T1, SWIP-MUT-HA (human WASHC4 P1019R) (human, UniProt Q2M389 1-1173, P1019R)
T1 construct: SWIP (WASHC4), human, with the patients' variant c.3056C>G, p.Pro1019Arg, made by site-directed mutagenesis of pmCAG-SWIP-WT-HA; The mutation occurs in human patients (Ropers et al., 2011); also called SWIP^P1019R; MUT SWIP; source: HEK293T, transfected (pmCAG-SWIP-MUT-HA), in lysate
T1 sequence (looked up): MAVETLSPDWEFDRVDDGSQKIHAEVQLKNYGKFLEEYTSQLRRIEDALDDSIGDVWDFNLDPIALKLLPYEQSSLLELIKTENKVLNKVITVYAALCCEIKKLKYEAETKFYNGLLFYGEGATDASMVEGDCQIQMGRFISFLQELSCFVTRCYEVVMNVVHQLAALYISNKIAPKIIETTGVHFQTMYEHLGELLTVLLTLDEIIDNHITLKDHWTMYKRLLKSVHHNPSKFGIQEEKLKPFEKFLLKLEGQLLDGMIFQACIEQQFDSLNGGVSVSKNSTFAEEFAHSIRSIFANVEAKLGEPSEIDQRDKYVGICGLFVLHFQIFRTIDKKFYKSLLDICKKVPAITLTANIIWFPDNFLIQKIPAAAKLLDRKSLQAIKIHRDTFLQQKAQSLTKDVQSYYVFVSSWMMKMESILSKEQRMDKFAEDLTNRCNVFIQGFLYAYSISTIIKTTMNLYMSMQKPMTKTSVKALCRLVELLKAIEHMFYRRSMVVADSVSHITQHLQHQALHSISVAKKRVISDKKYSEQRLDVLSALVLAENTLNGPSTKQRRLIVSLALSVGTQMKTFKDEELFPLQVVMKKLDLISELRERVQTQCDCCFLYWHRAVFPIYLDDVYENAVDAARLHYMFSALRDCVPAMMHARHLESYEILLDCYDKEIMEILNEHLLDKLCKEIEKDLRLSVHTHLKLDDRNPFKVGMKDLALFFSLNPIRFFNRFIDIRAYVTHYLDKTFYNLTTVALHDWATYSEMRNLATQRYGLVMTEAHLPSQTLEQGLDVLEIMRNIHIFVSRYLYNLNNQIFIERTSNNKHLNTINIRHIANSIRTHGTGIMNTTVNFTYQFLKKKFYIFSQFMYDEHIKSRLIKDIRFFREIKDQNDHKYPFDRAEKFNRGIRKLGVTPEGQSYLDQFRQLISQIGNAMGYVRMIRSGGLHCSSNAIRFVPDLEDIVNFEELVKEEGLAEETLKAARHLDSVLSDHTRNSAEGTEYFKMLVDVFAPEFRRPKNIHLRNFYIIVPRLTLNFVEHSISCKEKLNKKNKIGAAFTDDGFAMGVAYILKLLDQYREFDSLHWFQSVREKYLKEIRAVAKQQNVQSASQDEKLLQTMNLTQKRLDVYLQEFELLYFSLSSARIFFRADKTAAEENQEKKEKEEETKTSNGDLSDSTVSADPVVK
Test: co-IP; HEK293T transfected with SWIP-WT-HA or SWIP-MUT-HA for three days; lysis buffer 25 mM HEPES, 150 mM NaCl, 1 mM EDTA, 1% Nonidet P-40, pH 7.4; anti-HA agarose beads 2 hr at 4°C; blots for WASH1, Strumpellin and HA; band intensities normalised to WT
Conditions: partners not purified

amount co-immunoprecipitated, % of WT SWIP: 54.8 % of WT
B1: Strumpellin (WASHC5), human (natural protein, human (endogenous in HEK293T), UniProt Q12768 1-1159, looked up)
chain: MLDFLAENNLCGQAILRIVSCGNAIIAELLRLSEFIPAVFRLKDRADQQKYGDIIFDFSYFKGPELWESKLDAKPELQDLDEEFRENNIEIVTRFYLAFQSVHKYIVDLNRYLDDLNEGVYIQQTLETVLLNEDGKQLLCEALYLYGVMLLVIDQKIEGEVRERMLVSYYRYSAARSSADSNMDDICKLLRSTGYSSQPGAKRPSNYPESYFQRVPINESFISMVIGRLRSDDIYNQVSAYPLPEHRSTALANQAAMLYVILYFEPSILHTHQAKMREIVDKYFPDNWVISIYMGITVNLVDAWEPYKAAKTALNNTLDLSNVREQASRYATVSERVHAQVQQFLKEGYLREEMVLDNIPKLLNCLRDCNVAIRWLMLHTADSACDPNNKRLRQIKDQILTDSRYNPRILFQLLLDTAQFEFILKEMFKQMLSEKQTKWEHYKKEGSERMTELADVFSGVKPLTRVEKNENLQAWFREISKQILSLNYDDSTAAGRKTVQLIQALEEVQEFHQLESNLQVCQFLADTRKFLHQMIRTINIKEEVLITMQIVGDLSFAWQLIDSFTSIMQESIRVNPSMVTKLRATFLKLASALDLPLLRINQANSPDLLSVSQYYSGELVSYVRKVLQIIPESMFTSLLKIIKLQTHDIIEVPTRLDKDKLRDYAQLGPRYEVAKLTHAISIFTEGILMMKTTLVGIIKVDPKQLLEDGIRKELVKRVAFALHRGLIFNPRAKPSELMPKLKELGATMDGFHRSFEYIQDYVNIYGLKIWQEEVSRIINYNVEQECNNFLRTKIQDWQSMYQSTHIPIPKFTPVDESVTFIGRLCREILRITDPKMTCHIDQLNTWYDMKTHQEVTSSRLFSEIQTTLGTFGLNGLDRLLCFMIVKELQNFLSMFQKIILRDRTVQDTLKTLMNAVSPLKSIVANSNKIYFSAIAKTQKIWTAYLEAIMKVGQMQILRQQIANELNYSCRFDSKHLAAALENLNKALLADIEAHYQDPSLPYPKEDNTLLYEITAYLEAAGIHNPLNKIYITTKRLPYFPIVNFLFLIAQLPKLQYNKNLGMVCRKPTDPVDWPPLVLGLLTLLKQFHSRYTEQFLALIGQFICSTVEQCTSQKIPEIPADVVGALLFLEDYVRYTKLPRRVAEAHVPNFIFDEFRTVL
notes: Strumpellin (WASHC5), endogenous in HEK293T cells, detected with an anti-Strumpellin antibody; source: endogenous, HEK293T lysate

amount co-immunoprecipitated, % of WT SWIP: 41.4 % of WT
B2: WASH1 (WASHC1), human (natural protein, human (endogenous in HEK293T), UniProt A8K0Z3 1-465, looked up)
chain: MTPVRMQHSLAGQTYAVPFIQPDLRREEAVQQMADALQYLQKVSGDIFSRISQQVEQSRSQVQAIGEKVSLAQAKIEKIKGSKKAIKVFSSAKYPAPGRLQEYGSIFTGAQDPGLQRRPRHRIQSKHRPLDERALQEKLKDFPVCVSTKPEPEDDAEEGLGGLPSNISSVSSLLLFNTTENLYKKYVFLDPLAGAVTKTHVMLGAETEEKLFDAPLSISKREQLEQQVPENYFYVPDLGQVPEIHVPSYLPDLPGIANDLMYSADLGPGIAPSAPGTIPELPTFHTEVAEPLKVDLQDGVLTPPPPPPPPPPAPEVLASAPPLPPSTAAPVGQGARQDDSSSSASPSVQGAPREVVDPSGGWATLLESIRQAGGIGKAKLRSMKERKLEKQQQKEQEQVRATSQGGHLMSDLFNKLVMRRKGISGKGPGAGEGPGGAFVRVSDSIPPLPPPQQPQAEEDEDDWES
notes: WASH1 (WASHC1), endogenous in HEK293T cells, detected with an anti-WASH1 C-terminal antibody; Human cells carry several near-identical WASH paralogues; source: endogenous, HEK293T lysate
